Target: CD38 protein on the surfaces of Raji cells, Daudi cells, Ramos cells and RPMI8226 cells (human, UniProt P28907 1-300)
Experiment: cell-based or functional assay

B1: antibody SG003 (antibody, human IgG1, kappa, V domains shown)
VH: QVQLLESGGGLVQPGGSLKLSCVASGFDFSLYWMNWVRQAPGKGLEWIGKINPDSSTINYTPSLKDKFFISRDNAKNTLYLQMTKVRSEDTALYYCARLWIATGGFDYWGQGTTLTVSS
VL: EIVMTQSPASLSASLGQRATISCRASSSVSSSAFSYVHWYQQKSGQPPKLLIYLASNLESGVPARFSGSGSGTDFTLTIHPVESEDVATYYCHHSRELPFTFGSGTKLEIKR
  ADCC activity, EC50 (Daudi target cells, NK92MI-CD16a effector cells, LDH release): 0.72 ng/mL
  ADCC activity, EC50 (RPMI8226 target cells, NK92MI-CD16a effector cells, LDH release): 1.46 ng/mL
  ADCC activity, EC50 (Raji target cells, NK92MI-CD16a effector cells, LDH release): 6.97 ng/mL
